Results on 2 molecules are retold here after patent publication US7229755 (Dana-Farber, dated 2007).

The target in experiment [1] is (Gal4 binding domain)-hMsh2 fusion (pAS1-hMSH2) (human, UniProt P04386 1-147 (Saccharomyces cerevisiae entry), limits assumed). Kind of experiment: cell-based or functional assay.
For experiment [2], the target named is T1, hMsh2 protein with a hexa-HIS and factor Xa leader peptide at the N-terminus (overproduced in E. coli from a … (human, UniProt P43246 1-934)).
T1 construct: The leader peptide was not cleaved; The preparation was more than 50% pure; also called human Msh2; MSH2hu protein; not shown: hexa-HIS and factor Xa leader peptide from the pET vector derivative (Invitrogen)
The experiment is described as follows: gel-shift (supershift) of hMsh2 bound to a 32P-labelled 39-bp GT-mismatch duplex, with E. coli extract containing hMlh1. The method, then: Mismatch binding by human mismatch repair proteins was studied using a gel-shift binding assay. Briefly, protein fractions are incubated with a ^32P-labelled 39-basepair oligonucleotide duplex that was designed to minimize intramolecular interactions (Oligo Designs), and also contained a GT mismatch at position 20. Incubations were done for 10 minutes at 23° C. in 20 mM Tris (pH 7.5), 50 mM KCl, 1 mM DTT, and 0.1 mM EDTA to allow formation of protein-DNA complexes. Several different competitor nucleic acids (e.g. poly dI-dC, an otherwise identical 39-mer that lacked the mismatch, and/or unlabelled mismatched substrate) were added to minimize nonspecific binding. Reactions were then loaded onto a 6% acrylamide gel in TBE, and were electrophoresed.

B1: (Gal4 activation domain)-hMlh1 fusion (pACTII-hMLH1) (other, not shown: large carriers)
chain: MSFVAGVIRRLDETVVNRIAAGEVIQRPANAIKEMIENCLDAKSTSIQVIVKEGGLKLIQIQDNGTGIRKEDLDIVCERFTTSKLQSFEDLASISTYGFRGEALASISHVAHVTITTKTADGKCAYRASYSDGKLKAPPKPCAGNQGTQITVEDLFYNIATRRKALKNPSEEYGKILEVVGRYSVHNAGISFSVKKQGETVADVRTLPNASTVDNIRSIFGNAVSRELIEIGCEDKTLAFKMNGYISNANYSVKKCIFLLFINHRLVESTSLRKAIETVYAAYLPKNTHPFLYLSLEISPQNVDVNVHPTKHEVHFLHEESILERVQQHIESKLLGSNSSRMYFTQTLLPGLAGPSGEMVKSTTSLTSSSTSGSSDKVYAHQMVRTDSREQKLDAFLQPLSKPLSSQPQAIVTEDKTDISSGRARQQDEEMLELPAPAEVAAKNQSLEGDTTKGTSEMSEKRGPTSSNPRKRHREDSDVEMVEDDSRKEMTAACTPRRRIINLTSVLSLQEEINEQGHEVLREMLHNHSFVGCVNPQWALAQHQTKLYLLNTTKLSEELFYQILIYDFANFGVLRLSEPAPLFDLAMLALDSPESGWTEEDGPKEGLAEYIVEFLKKKAEMLADYFSLEIDEEGNLIGLPLLIDNYVPPLEGLPIFILRLATEVNWDEEKECFESLSKECAMFYSIRKQYISEESTLSGQQSEVPGSIPNSWKWTVEHIVYKALRSHILPPKHFTEDGNILQLANLPDLYKVFERC
B1: the “β-galactosidase activity (GAL4 promoter-β-galactosidase reporter, yeast Two-Hybrid)” value in experiment [1] is approximately 100 fold.

B2: hMlh1 protein overproduced in E. coli from pET-hMLH1 constructs (used as clarified bacterial extract) (other)
chain: MSFVAGVIRRLDETVVNRIAAGEVIQRPANAIKEMIENCLDAKSTSIQVIVKEGGLKLIQIQDNGTGIRKEDLDIVCERFTTSKLQSFEDLASISTYGFRGEALASISHVAHVTITTKTADGKCAYRASYSDGKLKAPPKPCAGNQGTQITVEDLFYNIATRRKALKNPSEEYGKILEVVGRYSVHNAGISFSVKKQGETVADVRTLPNASTVDNIRSIFGNAVSRELIEIGCEDKTLAFKMNGYISNANYSVKKCIFLLFINHRLVESTSLRKAIETVYAAYLPKNTHPFLYLSLEISPQNVDVNVHPTKHEVHFLHEESILERVQQHIESKLLGSNSSRMYFTQTLLPGLAGPSGEMVKSTTSLTSSSTSGSSDKVYAHQMVRTDSREQKLDAFLQPLSKPLSSQPQAIVTEDKTDISSGRARQQDEEMLELPAPAEVAAKNQSLEGDTTKGTSEMSEKRGPTSSNPRKRHREDSDVEMVEDDSRKEMTAACTPRRRIINLTSVLSLQEEINEQGHEVLREMLHNHSFVGCVNPQWALAQHQTKLYLLNTTKLSEELFYQILIYDFANFGVLRLSEPAPLFDLAMLALDSPESGWTEEDGPKEGLAEYIVEFLKKKAEMLADYFSLEIDEEGNLIGLPLLIDNYVPPLEGLPIFILRLATEVNWDEEKECFESLSKECAMFYSIRKQYISEESTLSGQQSEVPGSIPNSWKWTVEHIVYKALRSHILPPKHFTEDGNILQLANLPDLYKVFERC
notes: The protein was not purified and was used as clarified bacterial extract; also called hMLH1 gene product
With B2, the binding result in experiment [2] is recorded as “binds”.
